B1: Segment polarity protein dishevelled homolog DVL-3, residues 2 to 81; numbered along this chain, Q92997 (parent)
chain: GETKIIYHLDGQETPYLVKLPLPAERVTLADFKGVLQRPSYKFFFKSMDDDFGVVKEEISDDNAKLPCFNGRVVSWLVSA

± gives the uncertainty stated by the source.

In the data set the parent is B1. Nature of the data set: abundance fitness (aPCA) (normalised: wild type 0, dead -1); higher = more abundant; growth selection in yeast, the domain comes from the species named. Conditions: Homo sapiens.
On to GEAKIIYHLDGQETPYLVKLPLPAERVTLADFKGVLQRPSYKFFFKSMDDDFGVVKEEISDDNAKLPCFNGRVVSWLVSA [T3A], for which the abundance fitness is -0.684 ± 0.089.

In the case of GELKIIYHLDGQETPYLVKLPLPAERVTLADFKGVLQRPSYKFFFKSMDDDFGVVKEEISDDNAKLPCFNGRVVSWLVSA [T3L], the abundance fitness is -0.727 ± 0.083.

In the case of GEDKIIYHLDGQETPYLVKLPLPAERVTLADFKGVLQRPSYKFFFKSMDDDFGVVKEEISDDNAKLPCFNGRVVSWLVSA [T3D], the abundance fitness is -0.448 ± 0.11.

Turning to GEHKIIYHLDGQETPYLVKLPLPAERVTLADFKGVLQRPSYKFFFKSMDDDFGVVKEEISDDNAKLPCFNGRVVSWLVSA [T3H], the abundance fitness is -0.831 ± 0.18.

For GEGKIIYHLDGQETPYLVKLPLPAERVTLADFKGVLQRPSYKFFFKSMDDDFGVVKEEISDDNAKLPCFNGRVVSWLVSA [T3G], the abundance fitness was -0.853 ± 0.076.

For the variant GENKIIYHLDGQETPYLVKLPLPAERVTLADFKGVLQRPSYKFFFKSMDDDFGVVKEEISDDNAKLPCFNGRVVSWLVSA [T3N], the abundance fitness was -0.822 ± 0.18.

As to GEQKIIYHLDGQETPYLVKLPLPAERVTLADFKGVLQRPSYKFFFKSMDDDFGVVKEEISDDNAKLPCFNGRVVSWLVSA [T3Q], the abundance fitness was -1.05 ± 0.2.

Turning to GESKIIYHLDGQETPYLVKLPLPAERVTLADFKGVLQRPSYKFFFKSMDDDFGVVKEEISDDNAKLPCFNGRVVSWLVSA [T3S], the abundance fitness was -0.633 ± 0.085.

As for GEIKIIYHLDGQETPYLVKLPLPAERVTLADFKGVLQRPSYKFFFKSMDDDFGVVKEEISDDNAKLPCFNGRVVSWLVSA [T3I], the abundance fitness was -0.962 ± 0.25.

Consider GERKIIYHLDGQETPYLVKLPLPAERVTLADFKGVLQRPSYKFFFKSMDDDFGVVKEEISDDNAKLPCFNGRVVSWLVSA [T3R], for which the abundance fitness is -0.665 ± 0.075.

With GECKIIYHLDGQETPYLVKLPLPAERVTLADFKGVLQRPSYKFFFKSMDDDFGVVKEEISDDNAKLPCFNGRVVSWLVSA [T3C], the abundance fitness was -0.59 ± 0.12.

Take GEFKIIYHLDGQETPYLVKLPLPAERVTLADFKGVLQRPSYKFFFKSMDDDFGVVKEEISDDNAKLPCFNGRVVSWLVSA [T3F]: the abundance fitness is -0.452 ± 0.14.

For the variant IETKIIYHLDGQETPYLVKLPLPAERVTLADFKGVLQRPSYKFFFKSMDDDFGVVKEEISDDNAKLPCFNGRVVSWLVSA [G1I], the abundance fitness was -0.324 ± 0.26.

For the variant KETKIIYHLDGQETPYLVKLPLPAERVTLADFKGVLQRPSYKFFFKSMDDDFGVVKEEISDDNAKLPCFNGRVVSWLVSA [G1K], the abundance fitness amounted to 0.191 ± 0.11.

Regarding WETKIIYHLDGQETPYLVKLPLPAERVTLADFKGVLQRPSYKFFFKSMDDDFGVVKEEISDDNAKLPCFNGRVVSWLVSA [G1W], the abundance fitness was -0.222 ± 0.098.

As for RETKIIYHLDGQETPYLVKLPLPAERVTLADFKGVLQRPSYKFFFKSMDDDFGVVKEEISDDNAKLPCFNGRVVSWLVSA [G1R], the abundance fitness was -0.179 ± 0.068.

As to CETKIIYHLDGQETPYLVKLPLPAERVTLADFKGVLQRPSYKFFFKSMDDDFGVVKEEISDDNAKLPCFNGRVVSWLVSA [G1C], the abundance fitness was -0.13 ± 0.13.

On to DETKIIYHLDGQETPYLVKLPLPAERVTLADFKGVLQRPSYKFFFKSMDDDFGVVKEEISDDNAKLPCFNGRVVSWLVSA [G1D], for which the abundance fitness is -0.205 ± 0.1.

In the case of METKIIYHLDGQETPYLVKLPLPAERVTLADFKGVLQRPSYKFFFKSMDDDFGVVKEEISDDNAKLPCFNGRVVSWLVSA [G1M], the abundance fitness is -0.074 ± 0.14.

Turning to LETKIIYHLDGQETPYLVKLPLPAERVTLADFKGVLQRPSYKFFFKSMDDDFGVVKEEISDDNAKLPCFNGRVVSWLVSA [G1L], the abundance fitness is -0.132 ± 0.11.

Take PETKIIYHLDGQETPYLVKLPLPAERVTLADFKGVLQRPSYKFFFKSMDDDFGVVKEEISDDNAKLPCFNGRVVSWLVSA [G1P]: the abundance fitness was determined as 0.022 ± 0.24.

In the case of YETKIIYHLDGQETPYLVKLPLPAERVTLADFKGVLQRPSYKFFFKSMDDDFGVVKEEISDDNAKLPCFNGRVVSWLVSA [G1Y], the abundance fitness is -0.124 ± 0.21.

For the variant QETKIIYHLDGQETPYLVKLPLPAERVTLADFKGVLQRPSYKFFFKSMDDDFGVVKEEISDDNAKLPCFNGRVVSWLVSA [G1Q], the abundance fitness was -0.035 ± 0.16.

In the case of FETKIIYHLDGQETPYLVKLPLPAERVTLADFKGVLQRPSYKFFFKSMDDDFGVVKEEISDDNAKLPCFNGRVVSWLVSA [G1F], the abundance fitness worked out at 0.109 ± 0.23.

Take AETKIIYHLDGQETPYLVKLPLPAERVTLADFKGVLQRPSYKFFFKSMDDDFGVVKEEISDDNAKLPCFNGRVVSWLVSA [G1A]: the abundance fitness was -0.084 ± 0.074.

With NETKIIYHLDGQETPYLVKLPLPAERVTLADFKGVLQRPSYKFFFKSMDDDFGVVKEEISDDNAKLPCFNGRVVSWLVSA [G1N], the abundance fitness is -0.444 ± 0.26.

In the case of TETKIIYHLDGQETPYLVKLPLPAERVTLADFKGVLQRPSYKFFFKSMDDDFGVVKEEISDDNAKLPCFNGRVVSWLVSA [G1T], the abundance fitness was -0.198 ± 0.12.

Take GETKAIYHLDGQETPYLVKLPLPAERVTLADFKGVLQRPSYKFFFKSMDDDFGVVKEEISDDNAKLPCFNGRVVSWLVSA [I5A]: the abundance fitness is -0.837 ± 0.11.

GETKGIYHLDGQETPYLVKLPLPAERVTLADFKGVLQRPSYKFFFKSMDDDFGVVKEEISDDNAKLPCFNGRVVSWLVSA [I5G]: the abundance fitness was -0.643 ± 0.056.

Regarding GETKKIYHLDGQETPYLVKLPLPAERVTLADFKGVLQRPSYKFFFKSMDDDFGVVKEEISDDNAKLPCFNGRVVSWLVSA [I5K], the abundance fitness is -1.16 ± 0.21.

In the case of GETKCIYHLDGQETPYLVKLPLPAERVTLADFKGVLQRPSYKFFFKSMDDDFGVVKEEISDDNAKLPCFNGRVVSWLVSA [I5C], the abundance fitness was -0.535 ± 0.11.

Turning to GETKMIYHLDGQETPYLVKLPLPAERVTLADFKGVLQRPSYKFFFKSMDDDFGVVKEEISDDNAKLPCFNGRVVSWLVSA [I5M], the abundance fitness was -0.803 ± 0.12.

Take GETKEIYHLDGQETPYLVKLPLPAERVTLADFKGVLQRPSYKFFFKSMDDDFGVVKEEISDDNAKLPCFNGRVVSWLVSA [I5E]: the abundance fitness is -0.767 ± 0.11.

With GETKFIYHLDGQETPYLVKLPLPAERVTLADFKGVLQRPSYKFFFKSMDDDFGVVKEEISDDNAKLPCFNGRVVSWLVSA [I5F], the abundance fitness is -0.815 ± 0.17.

Take GETKLIYHLDGQETPYLVKLPLPAERVTLADFKGVLQRPSYKFFFKSMDDDFGVVKEEISDDNAKLPCFNGRVVSWLVSA [I5L]: the abundance fitness was -0.698 ± 0.085.

For the variant GETKDIYHLDGQETPYLVKLPLPAERVTLADFKGVLQRPSYKFFFKSMDDDFGVVKEEISDDNAKLPCFNGRVVSWLVSA [I5D], the abundance fitness was -0.973 ± 0.18.

GETKHIYHLDGQETPYLVKLPLPAERVTLADFKGVLQRPSYKFFFKSMDDDFGVVKEEISDDNAKLPCFNGRVVSWLVSA [I5H]: the abundance fitness was -0.514 ± 0.17.

The values are drawn from the Human Domainome abundance scans (Beltran et al. 2025).
